Paper PMC7293033

Experiments:
[1] = molecular target: GST-UAP56 (human) (UniProt Q13838); test: SPR; UAP56 with API5, FGF2, the API5–FGF2 complex or PBK as analyte proteins; purified recombinant proteins
[2] = molecular target: His-FGF2, LMW FGF2 (residues 135-288, C211S/C229S) (UniProt P09038); test: SPR; details: concentration series 0.031, 0.063, 0.13, 0.25, 0.50, 1.0, 2.0, 4.0, 8.0, 16 µM
[3] = molecular target: His-API5 (apoptosis inhibitor 5, residues 1-504, isoform 2), wild type (human); test: SPR; purified recombinant His-API5 and His-FGF2; who was immobilised is not given in the source
[4] = molecular target: His-API5 3Mut (E184A/D185A/E190A) (human); test: as above
[5] = molecular target: His-API5 (apoptosis inhibitor 5, residues 1-504, isoform 2), wild type; test: SPR; details: concentration series 0.13, 0.25, 0.50, 1.0, 2.0, 4.0, 8.0, 16 µM

GST-UAP56 (human), sequence (Q13838 whole entry, the tested form may be a part): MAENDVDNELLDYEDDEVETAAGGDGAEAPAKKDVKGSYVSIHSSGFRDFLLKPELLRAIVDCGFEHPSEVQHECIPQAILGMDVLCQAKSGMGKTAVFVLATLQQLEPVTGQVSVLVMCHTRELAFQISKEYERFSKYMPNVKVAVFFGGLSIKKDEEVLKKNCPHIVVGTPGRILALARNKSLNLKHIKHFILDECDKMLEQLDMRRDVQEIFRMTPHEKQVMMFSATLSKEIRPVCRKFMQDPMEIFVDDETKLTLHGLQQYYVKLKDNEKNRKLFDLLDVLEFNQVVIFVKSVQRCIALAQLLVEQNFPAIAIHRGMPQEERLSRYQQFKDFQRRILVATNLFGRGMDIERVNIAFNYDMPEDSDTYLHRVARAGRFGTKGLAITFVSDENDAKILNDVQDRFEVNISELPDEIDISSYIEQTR
His-FGF2, LMW FGF2 (residues 135-288, C211S/C229S), sequence (P09038 135-288 C211S/C229S): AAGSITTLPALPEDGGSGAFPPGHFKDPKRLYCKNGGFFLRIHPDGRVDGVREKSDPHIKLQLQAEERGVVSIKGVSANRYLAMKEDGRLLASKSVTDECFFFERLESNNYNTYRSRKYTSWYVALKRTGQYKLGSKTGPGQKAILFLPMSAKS

Kd [1] [nM]	Kd [3] [nM]	Kd [4] [nM]	Substance	also measured
199	–	–	API5–FGF2 complex (His-API5 with His-LMW FGF2) (from UniProt P09038 135-288)	–
1370	–	–	His-API5 (apoptosis inhibitor 5, residues 1-504, isoform 2), wild type (natural protein)	–
–	–	–	His-API5 (apoptosis inhibitor 5, residues 1-504, isoform 2), wild type E184A; D185A; E190A	kon [2]: 2260 M⁻¹ s⁻¹
–	1510	17300	His-FGF2 Mut (C211S/C229S/R262A/T263A/K271A) (from UniProt P09038 135-288) (natural protein)	–
–	676	4200	His-FGF2, LMW FGF2 (residues 135-288, C211S/C229S) (from UniProt P09038 135-288) (natural protein)	–
–	–	–	His-FGF2, LMW FGF2 (residues 135-288, C211S/C229S) (from UniProt P09038) R262A; T263A; K271A	kon [5]: 1660 M⁻¹ s⁻¹
